Laboratory results as given in patent US20130196415.

Test system: fibrin

trypsin (EC3.4.21.4, manufactured by Wako Pure Chemical Industries, Ltd.)
digestion circle on fibrin-containing solid medium (fibrinolytic activity assay, protease at FLV 111, overnight at 37° C.): a digestion circle was observed for trypsin
